Earlier results in publication PMC3012698, “Characterization of a Novel Interaction between Bcl-2 Members Diva and Harakiri” (PLoS ONE, 2010).

Assays:
[1] = ref [10]
Procedure: Circular dichroism (CD) experiments were performed on Harakiri's cytosolic domain to obtain information on its conformational behavior. […] Thus, the cytosolic domain of Harakiri is largely unstructured. Consequently, the NMR spectra of Hrk_ΔTM show small amide ^1H chemical shift dispersion (from ∼7.9 to 8.7 ppm) and severe signal overlap ( Fig. 6 ). These spectral features together with the absen ...

[2] = system: Diva; conditions: ref [21]
Excerpt: Harakiri localizes in membranes and exerts proapoptotic activity by interacting with survival Bcl-XL and Bcl-2 [18]. Harakiri has not been characterized at the structural level except for its C-terminal sequence (∼30 amino acids), which is known from low-resolution techniques to adopt α-helical conformation in model membranes. Diva has also been found predominantly in membranes [20]–[21]. However, little functional data on Diva is available. Specifically, previous independent reports indicate that Diva can have both pro- or antiapoptotic function [20]–[21]. Diva has also been ...

binding to Diva (co-immunoprecipitation) [2]	Molecule	structural state of unbound BH3-only protein [1]
–	Bad: BH3-only protein Bad (protein, UniProt Q92934 1-168, looked up) Bcl2-associated agonist of …: MFQIPEFEPSEQEDSSSAERGLGPSPAGDGPSGSGKHHRQAPGLLWDASHQQEQPTSSSHHGGAGAVEIRSRHSSYPAGTEDDEGMGEEPSPFRGRSRSAPPNLWAAQRYGRELRRMSDEFVDSFKKGLPRPKSAGTATQMRQSSSWTRVFQSWWDRNLGRGSSAPSQ	unstructured
bind	Bik: proapoptotic Bcl-2 member Bik (protein, UniProt Q13323 1-160, looked up) Bcl-2-interacting killer: MSEVRPLSRDILMETLLYEQLLEPPTMEVLGMTDSEEDLDPMEDFDSLECMEGSDALALRLACIGDEMDVSLRAPRLAQLSEVAMHSLGLAFIYDQTEDIRDVLRSFMDGFTTLKENIMRFWRSPNPGSWVSCEQVLLALLLLLALLLPLLSGGLHLLLK	–
bind	Bak: proapoptotic Bcl-2 member Bak (protein, UniProt Q16611 2-211, looked up) Bcl-2 homologous …: ASGQGPGPPRQECGEPALPSASEEQVAQDTEEVFRSYVFYRHQQEQEAEGVAAPADPEMVTLPLQPSSTMGQVGRQLAIIGDDINRRYDSEFQTMLQHLQPTAENAYEYFTKIATSLFESGINWGRVVALLGFGYRLALHVYQHGLTGFLGQVTRFVVDFMLHHCIARWIAQRGGWVAALNLGNGPILNVLVVLGVVLLGQFVVRRFFKS	–
